Data set [1] addresses homoserine transsuccinylase enzyme MetA (Escherichia coli, UniProt P07623). Particulars: in words; cited from earlier work.
Another data set has as its system E. coli. The note with it: growth rate of E. coli; cited from earlier work.
In data set [2] the test system is homoserine transsuccinylase. Nature of the data set: Homoserine transsuccinylase activity in vitro in crude extracts, succinylhomoserine quantified by GC-MS, with or without methionine and S-adenosylmethionine. Particulars: for MetA activity of clones in pTRC99A: alleles cloned in pTRC99A with an alanine between amino acid 1M and 2P.
Experimental: The activity of homoserine transsuccinylase was determined in vitro E. coli strains carrying either wild-type or mutant-enzymes were cultured in rich medium with 2.5 g/l glucose and harvested at late log phase. Cells were resuspended in cold potassium phosphate buffer and sonicated on ice (Branson sonifier, 70W). After centrifugation, proteins contained in the supernatants were quantified (Bradford, 1976).
Ten μl of the extracts were incubated for 30 minutes at 25° C. with 30 mM homoserine and 4 mM succinyl-CoA. Methionine and/or S-adenosylmethionine were added as indicated. The succinylhomoserine produced by homoserine transsuccinylase enzymes was quantified by GC-MS after derivatization with tert-butyldimethylsilyltrifluoroacetamide (TBDMSTFA). L-Serine[1-13C] was included as an internal standard.
Data set [3] deals with S-adenosylmethionine synthetase. In words: S-adenosylmethionine synthetase (MAT) activity in vitro in crude extracts, FIA-MS/MS. The class given is biochemical, E. coli. Particulars: 10 mM methionine, 10 mM ATP, 37° C., 30 minutes.
Where [4] appears, read: Methionine 0 mM, S-adenosylmethionine 0 mM, rich medium extracts.
Where [5] appears, read: Methionine 0 mM, S-adenosylmethionine 0.1 mM.
[6] abbreviates: Methionine 0 mM, S-adenosylmethionine 1 mM.
Setting [7] is: Methionine 10 mM, S-adenosylmethionine 0 mM.
[8] abbreviates: Methionine 10 mM, S-adenosylmethionine 0.1 mM.
Setting [9] is: Methionine 10 mM, S-adenosylmethionine 1 mM.

Residue numbers refer to the chain shown, from its start. Names and notes keep the numbering of the source. Values after ≈ are worked out from the molar mass of the structure shown.

homoserine transsuccinylase enzyme MetA, sequence (P07623 whole entry): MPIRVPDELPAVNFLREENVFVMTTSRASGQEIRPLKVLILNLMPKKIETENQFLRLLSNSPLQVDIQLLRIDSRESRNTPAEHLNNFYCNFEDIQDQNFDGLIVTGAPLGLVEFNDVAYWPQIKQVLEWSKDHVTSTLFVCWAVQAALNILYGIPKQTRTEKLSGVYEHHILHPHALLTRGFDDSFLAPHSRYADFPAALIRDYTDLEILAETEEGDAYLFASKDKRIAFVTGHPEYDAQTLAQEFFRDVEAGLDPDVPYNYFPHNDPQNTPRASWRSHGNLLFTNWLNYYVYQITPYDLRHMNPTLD

`CSCC[C@](C)(N)C(=O)O` [α-methylmethionine]: the “inhibition of homoserine transsuccinylase enzyme MetA” value in data set [1] is recorded as “potent inhibitor”. In the data set on E. coli, the “minimal concentration for a maximal inhibition” value is 5 µg/mL and the minimal inhibitory concentration is 1 µg/mL (≈ 6.13 µM).

B1: metA: wild-type E. coli homoserine transsuccinylase (metA gene, strain MG1655) (protein, UniProt P07623 2-309, looked up)
Homoserine …: PIRVPDELPAVNFLREENVFVMTTSRASGQEIRPLKVLILNLMPKKIETENQFLRLLSNSPLQVDIQLLRIDSRESRNTPAEHLNNFYCNFEDIQDQNFDGLIVTGAPLGLVEFNDVAYWPQIKQVLEWSKDHVTSTLFVCWAVQAALNILYGIPKQTRTEKLSGVYEHHILHPHALLTRGFDDSFLAPHSRYADFPAALIRDYTDLEILAETEEGDAYLFASKDKRIAFVTGHPEYDAQTLAQEFFRDVEAGLDPDVPYNYFPHNDPQNTPRASWRSHGNLLFTNWLNYYVYQITPYDLRHMNPTLD
Turning to B1, the Specific activity in data set [2] (setting [4]) is listed as 36.7 mUI/mg proteins; in data set [2] (setting [5]), 27.9 mUI/mg proteins; in data set [2] (setting [6]) it was 4.7 mUI/mg proteins; in data set [2] (setting [7]) it was 0.4 mUI/mg proteins; in data set [2] (setting [8]), 0.2 mUI/mg proteins; in data set [2] (setting [9]), 0.1 mUI/mg proteins. For the same molecule, the “MetA activity of clones in pTRC99A” value in data set [2] is “vary low”.

B2: metA*11: mutant homoserine transsuccinylase allele, CAG exchanged for GAG, Q replaced by E (Q64E) (protein, UniProt P07623 2-309, looked up, variant Q64E)
Homoserine …: B1 Homoserine … with Q63E
Consider B2, for which the Specific activity in data set [2] (setting [4]) is listed as 19.2 mUI/mg proteins; in data set [2] (setting [5]), 21.7 mUI/mg proteins; in data set [2] (setting [6]), 18.5 mUI/mg proteins; in data set [2] (setting [7]) it was 18.7 mUI/mg proteins; in data set [2] (setting [8]) it was 16.9 mUI/mg proteins; in data set [2] (setting [9]) it was 2.7 mUI/mg proteins. The “MetA activity of clones in pTRC99A” value in data set [2] was “vary low”.

B3: MetK* T227I (protein, UniProt P0A817 2-384, looked up, variant T227I)
S-adenosylmethionine synthase: AKHLFTSESVSEGHPDKIADQISDAVLDAILEQDPKARVACETYVKTGMVLVGGEITTSAWVDIEEITRNTVREIGYVHSDMGFDANSCAVLSAIGKQSPDINQGVDRADPLEQGAGDQGLMFGYATNETDVLMPAPITYAHRLVQRQAEVRKNGTLPWLRPDAKSQVTFQYDDGKIVGIDAVVLSTQHSEEIDQKSLQEAVMEEIIKPILPAEWLTSATKFFINPIGRFVIGGPMGDCGLTGRKIIVDTYGGMARHGGGAFSGKDPSKVDRSAAYAARYVAKNIVAAGLADRCEIQVSYAIGVAEPTSIMVETFGTEKVPSEQLTLLVREFFDLRPYGLIQMLDLLHPIYKETAAYGHFGREHFPWEKTDKAQLLRDAAGLK
Turning to B3, the “MAT (S-adenosylmethionine synthetase activity)” value (“MAT” for short) in data set [3] was 4.9 mUI/mg prot.

B4: MetK* G105S (protein, UniProt P0A817 2-384, looked up, variant G105S)
S-adenosylmethionine synthase: B3 S-adenosylmethionine synthase with G105S, I227T
With B4, the “MAT” value in data set [3] came to 2.8 mUI/mg prot.

B5: MetK* H143T (protein, UniProt P0A817 2-384, looked up, variant H143T)
S-adenosylmethionine synthase: B3 S-adenosylmethionine synthase with H142T, I227T
On to B5, for which the “MAT” value in data set [3] was determined as 2.5 mUI/mg prot.

B6: MetK* P137L (protein, UniProt P0A817 2-384, looked up, variant P137L)
S-adenosylmethionine synthase: B3 S-adenosylmethionine synthase with P137L, I227T
For the molecule B6, the “MAT” value in data set [3] turned out to be 1.2 mUI/mg prot.

B7: MetK* G115S (protein, UniProt P0A817 2-384, looked up, variant G115S)
S-adenosylmethionine synthase: B3 S-adenosylmethionine synthase with G115S, I227T
For the molecule B7, the “MAT” value in data set [3] is on record as 0.4 mUI/mg prot.

B8: WT: wild-type E. coli S-adenosylmethionine synthetase (MetK) (protein, UniProt P0A817 2-384, looked up)
S-adenosylmethionine synthase: B3 S-adenosylmethionine synthase with I227T
Take B8: the “MAT” value in data set [3] was found to be 7.5 mUI/mg prot.

B9: MetK* S59N + G105S (protein, UniProt P0A817 2-384, looked up, variant S59N G105S)
S-adenosylmethionine synthase: B3 S-adenosylmethionine synthase with S59N, G105S, I227T
In the case of B9, the “MAT” value in data set [3] is 2.9 mUI/mg prot.

B10: MetK* H189Y (protein, UniProt P0A817 2-384, looked up, variant H189Y)
S-adenosylmethionine synthase: B3 S-adenosylmethionine synthase with H189Y, I227T
Turning to B10, the “MAT” value in data set [3] was found to be 0.6 mUI/mg prot.

B11: MetK* R161C + P235S (protein, UniProt P0A817 2-384, looked up, variant R161C P235S)
S-adenosylmethionine synthase: B3 S-adenosylmethionine synthase with R161C, I227T, P235S
For B11, the “MAT” value in data set [3] is 0.7 mUI/mg prot.
